Experimental data taken from publication PMC7647061, “Expression, purification and characterization of α-synuclein fibrillar specific scFv from inclusion bodies” (PLoS ONE, 2020).

Molecular target: full-length α-syn140 fibrils (Homo sapiens (assumed), UniProt P37840)
Assay: far-Western, overlay or dot blot; dot blot: antigen (monomeric or fibrillar) spotted on nitrocellulose in 5 μl, air-dried, blocked in 5% skimmed milk in PBST; scFv-F 5 μg/mL overnight at 4°C; detected by anti-His and HRP secondary antibody
Settings: both partners purified

B1: single-chain variable fragment (scFv-F) antibody (scFv, V domains shown)
VH: DVQLVESGGGLVQPGGSRKLSCAASGFTFSSFGMHWVRQAPEKGLEWVAYISSGSSTIYYADTVKGRFTISRDNPKNTLFLQMTSLRSEDTAMYYCARGNNPGTGYYYAMDYWGQGTSVTVSS
VL: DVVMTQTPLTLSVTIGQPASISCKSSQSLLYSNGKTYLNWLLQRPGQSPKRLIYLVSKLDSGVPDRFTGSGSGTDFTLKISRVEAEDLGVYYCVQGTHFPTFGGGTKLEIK
notes: VL of mouse monoclonal antibody Syn-F2; (Gly4Ser)3 linker, written out from the printed formula; VH of mouse monoclonal antibody Syn-F2; Order VL-(Gly4Ser)3-VH-6xHis; Final construct is in pET28a; the vector may add residues at the N-terminus (the model's residue numbers Tyr215 and Thr269 hint at a chain longer than VL-linker-VH alone); not shown: His6, C-terminal, kept
binding result: binds
